Source: the supplement of paper PMC10899765

Tests used:
Conditions in all cases: 20 nM; 72 h
MCF10A [1] = experiment: percent viability (nuclei count relative to siNT); higher = more viable cells
Experimental: (§1)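 After 72 h, cells were fixed and stained with Hoechst and anti-fibrillarin, and nucleoli per nucleus were counted with CellProfiler. Values are plate-adjusted percent effect for the one-nucleolus and 5+ nucleoli phenotypes, normalised to siNT (0%) and to the positive controls siNOL11 or siKIF11 (100%), as the mean of biological triplicates. Percent viability is the nuclei count relative to siNT.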

MCF10A [2] = experiment: one-nucleolus phenotype percent effect (relative to siNT 0% and siNOL11 100%); higher = more cells with one nucleolus (ribosome biogenesis inhibition)
Experimental: as §1

MCF10A [3] = experiment: 5+ nucleoli phenotype percent effect (relative to siNT 0% and siKIF11 100%); higher = more cells with five or more nucleoli
Experimental: as §1

| Sequence | percent viability (MCF10A [1]) [%] | one-nucleolus phenotype percent effect (MCF10A [2]) [%] | 5+ nucleoli phenotype percent effect (MCF10A [3]) [%] |
| --- | --- | --- | --- |
| GUGACAUCACAUAUACGGCAGC [hsa-miR-489] | 22.4 | 53.7 | -33.1 |
| GAAGGCAGCAGUGCUCCCCUGU [hsa-miR-3714] | 9.1 | 19.5 | -29.2 |
| CUCCUACAUAUUAGCAUUAACA [hsa-miR-155-3p] | 119 | -5.11 | 6.71 |
| AUACCCAUAGCUUAGCUCCCA [hsa-miR-5591-3p] | 16.2 | 47 | -19.5 |
| CCUCACCACCCCUUCUGCCUGCA [hsa-miR-6511b-3p] | 69.7 | -22.7 | 22.9 |
| UGGCUCAGUUCAGCAGGAACAG [hsa-miR-24-3p] | 26.5 | 2.42 | -17 |
| AAGCAGCAGUGGCAAGACUCCU [hsa-miR-6838-5p] | 24.7 | 31.1 | -35.6 |
| CUGCAAAGGGAAGCCCUUUC [hsa-miR-518a-5p] | 32.4 | 60.3 | -45.8 |
| AGACCCUGCAGCCUUCCCACC [hsa-miR-4725-5p] | 36 | 17.4 | -16 |
| GACACAUGACCAUAAAUGCUAA [hsa-miR-4643] | 109 | -11.7 | 36.8 |
| AUCCUCUUUCGUCCUUCCCACU [hsa-miR-6881-3p] | 49.2 | 22.7 | -36.4 |
| UCACCAGCCCUGUGUUCCCUAG [hsa-miR-1226-3p] | 31.7 | 33.5 | -42.2 |
| GAAAGUAAUUGCUGUUUUUGCC [hsa-miR-548aq-5p] | 118 | -13.4 | 16.5 |
| CAACCUCGAGGAUCUCCCCAGC [hsa-miR-3150b-5p] | 48.1 | -5.6 | 20.8 |
| GCAGUCCAUGGGCAUAUACAC [hsa-miR-455-3p] | 112 | -12.4 | 26.8 |
| CAAAACGUGAGGCGCUGCUAU [hsa-miR-424-3p] | 74.1 | -5.82 | -16.6 |
| ACAAAGUGCUUCCCUUUAGAGUGU [hsa-miR-520g] | 77.4 | -7.99 | 24.4 |
| UCACAAGGUAUUGACUGGCGUA [hsa-miR-4457] | 47.9 | 1.5 | -15.7 |
| CAGCCCUCCUCCCGCACCCAAA [hsa-miR-4687-5p] | 80.6 | -10.4 | -6.45 |
| UAUCCAGCUUGUUACUAUAUGC [hsa-miR-5586-5p] | 47.2 | -0.119 | 7.77 |

| Sequence | percent viability (MCF10A [1]) [%] | one-nucleolus phenotype percent effect (MCF10A [2]) [%] | 5+ nucleoli phenotype percent effect (MCF10A [3]) [%] |
| --- | --- | --- | --- |
| AAAAACCACAAUUACUUUUGCACCA [hsa-miR-548t-3p] | 157 | -19.6 | 39.3 |
| UGAUCUCACCGCUGCCUCCUUC [hsa-miR-4695-3p] | 93.9 | -9.6 | 12.8 |
| AAGACGGGAGGAAAGAAGGGAG [hsa-miR-483-5p] | 51.5 | 19.1 | -31.8 |
| CCGCCUGAGCUAGCUGUGG [hsa-miR-6078] | 89.3 | -22.1 | 38.1 |
| AGUGGACCGAGGAAGGAAGGA [hsa-miR-4800-5p] | 44.8 | 2.75 | -9.53 |
| UAGCAGCGGGAACAGUUCUGCAG [hsa-miR-503-5p] | 29.1 | 14.4 | -16.1 |
| CGUGGAUUGUCUGGAUGCAU [hsa-miR-8056] | 41.8 | 12.9 | -25.1 |
| CUGAUAAGAACAGAGGCCCAGAU [hsa-miR-3161] | 34.7 | 18.2 | -24.6 |
| UGCGGGGACAGGCCAGGGCAUC [hsa-miR-4749-5p] | 21.9 | 50.5 | -24.9 |
| GUUUUACCACCUCCAGGAGACU [hsa-miR-2681-5p] | 36 | -33.4 | 3.14 |
| CCGGCAUGUCCAGGGCA [hsa-miR-4304] | 25.4 | 14.3 | 3.17 |
| CUCCCCGGCCUCUGCCCCCAG [hsa-miR-6763-3p] | 96.4 | -28.1 | 39.1 |
| UAAAGAACUCUUAAAACCCAAU [hsa-miR-3133] | 51.5 | -22.2 | 48.7 |
| UGCCUCCCUGACAUUCCACAG [hsa-miR-6778-3p] | 7.57 | 10.1 | -21 |
| AGGCAUUGACUUCUCACUAGCU [hsa-miR-1256] | 32.9 | 1.57 | 2.63 |
| UCUUCUUCCUUUGCAGAGUUGA [hsa-miR-4778-3p] | 77.1 | -1.98 | 1.95 |
| UUCAUUCGGCUGUCCAGAUGUA [hsa-miR-1298] | 130 | -24.3 | 33.4 |
| CCACUGCCUAUGCCCCACAG [hsa-miR-6890-3p] | 62.1 | -16.6 | -13.4 |
| UGGAUGACAGUGGAGGCCU [hsa-miR-6744-5p] | 20.5 | 37.8 | -19.1 |
| AAAUUCAUGUUCAAUCUAAACC [hsa-miR-4760-3p] | 68.6 | -13.1 | 10 |

| Sequence | percent viability (MCF10A [1]) [%] | one-nucleolus phenotype percent effect (MCF10A [2]) [%] | 5+ nucleoli phenotype percent effect (MCF10A [3]) [%] |
| --- | --- | --- | --- |
| ACAGAUUCGAUUCUAGGGGAAU [hsa-miR-10b-3p] | 53.5 | 15.6 | -9.13 |
| ACAGCCCAGCAGUUAUCACGGG [hsa-miR-5685] | 57.8 | -1.32 | -0.657 |
| UUAGGCCGCAGAUCUGGGUGA [hsa-miR-1295a] | 33.2 | 8.73 | -12.5 |
| GCAGUAGUGUAGAGAUUGGUUU [hsa-miR-3129-5p] | 40.7 | -15 | 12.6 |
| GCCCGAGAGGAUCCGUCCCUGC [hsa-miR-4740-3p] | 65.9 | -18.2 | 17.8 |
| UAGCACCAUCUGAAAUCGGUUA [hsa-miR-29a-3p] | 65.1 | -24 | 46.9 |
| AACCCCUAAGGCAACUGGAUGG [hsa-miR-5195-5p] | 53.1 | -2.47 | 2.35 |
| CCUGAGCCCGGGCCGCGCAG [hsa-miR-1199-5p] | 71.4 | -24.2 | 27.4 |
| UAAGGCACCCUUCUGAGUAGA [hsa-miR-506-3p] | 15.7 | 57.2 | -31.8 |
| CUAAUAGUAUCUACCACAAUAAA [hsa-miR-633] | 107 | -23.4 | 35.1 |
| CCUCACCCAGCUCUCUGGCCCUCU [hsa-miR-6862-3p] | 72 | -26.5 | 15.4 |
| AGACACAUUUGGAGAGGGAACC [hsa-miR-642a-3p] | 90.2 | -16.3 | 16 |
| CUCUAGCCACAGAUGCAGUGAU [hsa-miR-1287-3p] | 17 | 31.4 | -37.2 |
| CUAGCACACAGAUACGCCCAGA [hsa-miR-585-5p] | 36.5 | 46 | -45.7 |
| CAACCCUAGGAGAGGGUGCCAUUCA [hsa-miR-652-5p] | 46.2 | 12.5 | -17.7 |
| AAUCACUAACCACACGGCCAGG [hsa-miR-34c-3p] | 70.3 | -3.51 | 13.7 |
| GUGCGGAACGCUGGCCGGGGCG [hsa-miR-6850-5p] | 45.3 | 5.11 | -19.5 |
| GAGGGCAGCGUGGGUGUGGCGGA [hsa-miR-4632-5p] | 64.3 | 0.575 | 13.1 |
| GAGUUCUACAGUCAGAC [hsa-miR-3168] | 22.3 | -2.63 | -12.9 |
